Data published in patent US20120204275A1 (NEOTOPE BIOSCIENCES, published 2012).

Target: T1, full-length ApoE4 (human, UniProt P02649 19-317)
T1 construct: In cell lysate; P02649 is printed for the E3 allele (residues 19-317); also called ApoE4(1-299)
T1 chain: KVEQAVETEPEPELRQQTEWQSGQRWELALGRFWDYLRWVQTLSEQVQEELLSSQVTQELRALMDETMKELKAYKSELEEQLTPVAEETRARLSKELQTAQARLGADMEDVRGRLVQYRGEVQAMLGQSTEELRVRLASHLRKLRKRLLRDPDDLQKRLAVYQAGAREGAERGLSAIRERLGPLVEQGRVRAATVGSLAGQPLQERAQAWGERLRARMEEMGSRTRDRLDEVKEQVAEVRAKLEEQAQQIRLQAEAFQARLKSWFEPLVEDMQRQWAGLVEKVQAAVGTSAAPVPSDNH
Test: immunoprecipitation from cell lysate, western blot with 1F9
Procedure: Cell Lysates preparation: Media was aspirated. Cells were treated for desired time by adding fresh media containing regulator. Media was then removed and cells rinsed with ice-cold PBS to harvest cells under nondenaturing conditions. PBS was removed, and 0.5 ml ice-cold 1× cell lysis buffer was added to each plate (10 cm). The plates were incubated on ice for 5 minutes. Cells were scraped off the plates and transferred to microcentrifuge tubes. The cells were kept on ice, and sonicated on ice three times for 5 seconds each. The samples were then microcentrifuged for 10 minutes at 14,000×g, 4° C., and the supernatant was transferred to a new tube. When necessary, lysate was stored at −80° C.
The membrane was then incubated with primary antibody anti-ApoE4 antibody 1F9 (MBL International Corp., Cat# M067-3) in 10 ml primary antibody dilution buffer with gentle agitation overnight at 4° C. […]
Lysates of full-length ApoE3, full-length ApoE4, ApoE3(1-272), and ApoE4(1-272) lysates were detected using Western blot with 1 μg/ml 1F9 (Medical and Biological Laboratories) (Lanes 1-4; FIG. 3). […] The m15G8 immunoprecipitation were then detected using Western blot with 1 μg/ml 1F9 (Lanes 5-8; FIG. 3). […]

binding result: no binding
B1: mouse monoclonal antibody 15G8 (antibody, V domains shown)
VH: EVKLVESGGGLVKPGGSLKLSCAASGFTFSFYAMSWVRQTPEKRLEWVASLSRGGSTYYPDSVKGRFTISRDNARNTLYLQMSSLRSEDTAMFYCAREGATALYAMDYWGQGTSVTVSS
VL: DVLMTQTPLSLPVSLGDQASISCRSSQSIVHSNGNTYLQWYLQKPGQSPKLLIYKVSNRFSGVPDRFSGSGSGTDFTLKISRVEAEDLGIYYCFQGSHVPWTFGGGTKLEIK
notes: Same variable regions as 12C12 and 15E10; also called m15G8; mouse 15G8
